According to patent US20240026461A1, “BCL10 MUTATIONS AS BIOMARKERS FOR TARGETED THERAPY IN B CELL LYMPHOMAS” (priority 2022, published 2024):

B1: BCL10^E140X (recombinant, after 3C cleavage of the MBP tag) (other)
chain: MEPTAPSLTEEDLTEVKKDALENLRVYLCEKIIAERHFDHLRAKKILSREDTEEISCRTSSRKRAGKLLDYLQENPKGLDTLVESIRREKTQNFLIQKITDEVLKLRNIKLEHLKGLKCSSCEPFPDGATNNLSRSNSD
modifications: Alexa488 (C5-maleimide) on cysteine residues in the confocal and quenching assays
notes: Range 1-139 from the name E140X; Made as His-MBP-3C site-BCL10; MBP removed by 3C protease; also called E140X filaments; BCL10 (1-140)
B2: Full length His-tagged MALT1 (protein)
chain: SLLGDPLQALPPSAAPTGPLLAPPAGATLNRLREPLLRRLSELLDQAPEGRGWRRLAELAGSRGRLRLSCLDLEQCSLKVLEPEGSPSLCLLKLMGEKGCTVTELSDFLQAMEHTEVLQLLSPPGIKITVNPESKAVLAGQFVKLCCRATGHPFVQYQWFKMNKEIPNGNTSELIFNAVHVKDAGFYVCRVNNNFTFEFSQWSQLDVCDIPESFQRSVDGVSESKLQICVEPTSQKLMPGSTLVLQCVAVGSPIPHYQWFKNELPLTHETKKLYMVPYVDLEHQGTYWCHVYNDRDSQDSKKVEIIIGRTDEAVECTEDELNNLGHPDNKEQTTDQPLAKDKVALLIGNMNYREHPKLKAPLVDVYELTNLLRQLDFKVVSLLDLTEYEMRNAVDEFLLLLDKGVYGLLYYAGHGYENFGNSFMVPVDAPNPYRSENCLCVQNILKLMQEKETGLNVFLLDMCRKRNDYDDTIPILDALKVTANIVFGYATCQGAEAFEIQHSGLANGIFMKFLKDRLLEDKKITVLLDEVAEDMGKCHLTKGKQALEIRSSLSEKRALTDPIQGTEYSAESLVRNLQWAKAHELPESMCLKFDCGVQIQLGFAAEFSNVMIIYTSIVYKPPEIIMCDAYVTDFPLDLDIDPKDANKGTPEETGSYLVSKDLPKHCLYTRLSSLQKLKEHLVFTVCLSYQYSGLEDTVEDKQEVNVGKPLIAKLDMHRGLGRKTCFQTCLMSNGPYQSSAATSGGAGHYHSLQDPFHGVYHSHPGNPSNVTPADSCHCSRTPDAFISSFAHHASCHFSRSNVPVETTDEIPFSFSDRLRISEK
B3: BCL10^WT (recombinant, full-length, after 3C cleavage of the MBP tag) (other)
chain: MEPTAPSLTEEDLTEVKKDALENLRVYLCEKIIAERHFDHLRAKKILSREDTEEISCRTSSRKRAGKLLDYLQENPKGLDTLVESIRREKTQNFLIQKITDEVLKLRNIKLEHLKGLKCSSCEPFPDGATNNLSRSNSDESNFSEKLRASTVMYHPEGESSTTPFFSTNSSLNLPVLEVGRTENTIFSSTTLPRPGDPGAPPLPPDLQLEEEGTCANSSEMFLPLRSRTVSRQ
modifications: Alexa488 (C5-maleimide) on cysteine residues in the confocal and quenching assays
notes: Made as His-MBP-3C site-BCL10 (vector pDB-His-MBP); MBP removed by 3C protease to start filament formation; Forms helical filaments (number of copies not fixed); also called BCL10 FL; BCL10 WT filaments
B4: BCL10^R58Q (recombinant, full-length, after 3C cleavage of the MBP tag) (other)
chain: MEPTAPSLTEEDLTEVKKDALENLRVYLCEKIIAERHFDHLRAKKILSREDTEEISCQTSSRKRAGKLLDYLQENPKGLDTLVESIRREKTQNFLIQKITDEVLKLRNIKLEHLKGLKCSSCEPFPDGATNNLSRSNSDESNFSEKLRASTVMYHPEGESSTTPFFSTNSSLNLPVLEVGRTENTIFSSTTLPRPGDPGAPPLPPDLQLEEEGTCANSSEMFLPLRSRTVSRQ
modifications: Alexa488 (C5-maleimide) on cysteine residues in the confocal and quenching assays
notes: Made as His-MBP-3C site-BCL10; MBP removed by 3C protease; Forms filaments; also called R58Q filaments

Key:
[1] = molecular target: the molecule itself; test: confocal fluorescence microscopy of Alexa488-BCL10 filaments 4 h after 3C cleavage of MBP; self-association
Protocol: To determine the mechanism through which BCL10 mutants might confer a biochemical gain of function, full-length BCL10^WT, BCL10^E140X and BCL10^R58Q fused to a 3C protease-cleavable maltose binding protein (MBP) at the N-terminus to keep the proteins in a monomeric state were expressed and purified (FIG. 9A). The purified proteins were labeled with Alexa488 through cysteine residues in the unstructured C-terminal region. Spontaneous filament formation was then assessed by confocal fluorescence microscopy as a function of BCL10 concentration 4 h after mixing with the 3C protease to remove the MBP tag. […] The kinetics of filament formation by these proteins was imaged at […] concentration, which is above the concentration of polymerization for WT and these mutant BCL10 proteins using time lapse confocal fluorescence microscopy.

[2] = molecular target: T1, Full length His-tagged MALT1 (human, UniProt Q9UDY8 2-824); test: negative staining EM of BCL10 filaments incubated with MALT1
T1 construct: mature; also called purified, full length MALT1; FL MALT1; not shown: His tag
T1 sequence (looked up): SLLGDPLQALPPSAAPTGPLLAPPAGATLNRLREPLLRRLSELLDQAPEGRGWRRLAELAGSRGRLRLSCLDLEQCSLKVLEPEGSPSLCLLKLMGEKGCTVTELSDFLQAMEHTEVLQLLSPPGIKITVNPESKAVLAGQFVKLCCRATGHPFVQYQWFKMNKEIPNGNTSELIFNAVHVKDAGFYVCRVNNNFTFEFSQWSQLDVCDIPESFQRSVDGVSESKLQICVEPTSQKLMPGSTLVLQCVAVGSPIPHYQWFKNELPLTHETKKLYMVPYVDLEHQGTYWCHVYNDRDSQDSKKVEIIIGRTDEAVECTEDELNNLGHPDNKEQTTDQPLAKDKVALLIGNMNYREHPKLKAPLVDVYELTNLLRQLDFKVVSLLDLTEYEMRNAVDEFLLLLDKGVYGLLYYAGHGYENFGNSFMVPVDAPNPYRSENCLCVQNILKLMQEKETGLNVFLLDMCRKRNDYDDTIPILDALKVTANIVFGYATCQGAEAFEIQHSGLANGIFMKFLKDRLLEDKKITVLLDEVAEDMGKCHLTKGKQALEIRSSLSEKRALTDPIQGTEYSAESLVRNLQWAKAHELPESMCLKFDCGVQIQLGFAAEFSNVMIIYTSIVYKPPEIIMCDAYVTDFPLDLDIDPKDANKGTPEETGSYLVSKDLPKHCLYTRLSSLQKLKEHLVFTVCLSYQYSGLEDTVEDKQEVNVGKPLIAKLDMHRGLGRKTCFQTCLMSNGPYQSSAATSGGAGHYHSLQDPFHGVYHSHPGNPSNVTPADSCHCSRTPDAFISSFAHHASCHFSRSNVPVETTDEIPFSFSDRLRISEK
Protocol: This new MALT1 binding domain is deleted from BCL10^E140X. The inventors next explored whether there was any impairment in MALT1 recruitment to BCL10 filaments, by generating BCL10^WT and BCL10^E140X filaments in vitro and incubating them with purified, full length MALT1 followed by negative staining electron microscopy (EM). […] However, this experiment may not provide sufficient resolution to show whether MALT1 distribution on the different BCL10 polymers was altered. Therefore, cryo-EM data were then collected on a Titan Krios microscope operating ats 300 keV and equipped with a Falcon II direct electron detector. The cryo-EM structure of BCL10^E140X filaments in complex with MALT1 was thus determined at 4.3 Å resolution.
Given that this new MALT1 binding domain is deleted from BCL10^E140X we next explored whether there was any impairment in MALT1 recruitment to BCL10 filaments, by generating BCL10^WT and BCL10^E140X filaments in vitro and incubating them with purified, full length MALT1 followed by negative staining EM. […] The structure of the BCL10^E140X filament with MALT1 was highly similar to that of the BCL10^WT filament with MALT1 at 4.9 Å resolution, in which the DDS of MALT1 bind the CARD of BCL10 and decorate the outside of the core CARD filament (FIG. 11G-I).

[3] = molecular target: T2, BCL10^E140X (recombinant, after 3C cleavage of the MBP tag)
T2 chain: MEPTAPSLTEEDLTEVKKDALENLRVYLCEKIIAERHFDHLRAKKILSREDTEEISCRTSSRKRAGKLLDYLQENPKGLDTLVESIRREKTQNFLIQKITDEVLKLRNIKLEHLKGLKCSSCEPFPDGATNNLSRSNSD

[4] = molecular target: T3, BCL10^WT (recombinant, full-length, after 3C cleavage of the MBP tag)
T3 chain: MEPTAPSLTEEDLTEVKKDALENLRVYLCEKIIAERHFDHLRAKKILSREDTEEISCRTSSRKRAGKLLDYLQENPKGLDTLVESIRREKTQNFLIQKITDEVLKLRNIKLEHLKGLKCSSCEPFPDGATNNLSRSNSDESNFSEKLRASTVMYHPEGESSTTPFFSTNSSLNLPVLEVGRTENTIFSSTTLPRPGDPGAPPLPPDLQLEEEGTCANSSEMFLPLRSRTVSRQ

[5] = molecular target: T4, BCL10^R58Q (recombinant, full-length, after 3C cleavage of the MBP tag)
T4 chain: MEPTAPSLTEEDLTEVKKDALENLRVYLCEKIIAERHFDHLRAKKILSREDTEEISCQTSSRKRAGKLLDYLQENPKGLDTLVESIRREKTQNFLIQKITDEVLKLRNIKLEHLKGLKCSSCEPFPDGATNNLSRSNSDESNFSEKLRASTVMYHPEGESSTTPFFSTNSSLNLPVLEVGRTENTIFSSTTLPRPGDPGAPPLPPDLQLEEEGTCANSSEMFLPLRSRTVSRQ

| Binder | concentration of polymerization [1] [nM] | binding result [2] | BCL10 polymerization kinetics by fluorescence quenching (3 µM Alexa488-BCL10, MALT1 at 0, 1.5, 3, 6 and 12 µM) [3] | BCL10 polymerization kinetics by fluorescence quenching (3 µM Alexa488-BCL10, MALT1 at 0, 1.5, 3, 6 and 12 µM) [4] | BCL10 polymerization kinetics by fluorescence quenching (3 µM Alexa488-BCL10, MALT1 at 0, 1.5, 3, 6 and 12 µM) [5] |
| --- | --- | --- | --- | --- | --- |
| B1 | ≤ 100 | binds | – | – | – |
| B2 | – | – | there was little suppression of BCL10^E140X polymerization by MALT1 at any dose | increasing doses of MALT1 suppressed BCL10^WT and BCL10^R58Q filament formation in a dose dependent manner | increasing doses of MALT1 suppressed BCL10^WT and BCL10^R58Q filament formation in a dose dependent manner |
| B3 | ~500 | binds | – | – | – |
| B4 | ~250 | – | – | – | – |
